Four molecules from patent US20050100554A1 (published 2005) can be followed below.

B1: Prey1053670 (other)
chain: MSSDERKAFLQFTTGCSTLPPGGLANLHPRLTVVRKVDATDASYPSVNTCVHYLKLPEYSSEEIMRERLLAATMEKGFHLN
notes: also called Homo sapiens, Similar to CG5604 gene product, clone MGC:11330; cbe_3606990
B2: RIL (other)
chain: MPHSVTLRGPSPWGFRLVGGRDFSAPLTISRVHAGSKAALAALCPGDLIQAINGESTELMTHLEAQNRIKGCHDHLTLSVSRPEGRSWPSAPDDSKAQAHRIHIDPEIQDGSPTTSRRPSGTGTGPEDGRPSLGSPYGQPPRFPVPHNGSSEATLPAQMSTLHVSPPPSADPARGLPRSRDCRVDLGSEVYRMLREPAEPVAAEPKQSGSFRYLQGMLEAGEGGDWPGPGGPRNLKPTASKLGAPLSGLQGLPECTRCGHGIVGTIVKARDKLYHPECFMCSDCGLNLKQRGYFFLDERLYCESHAKARVKPPEGYDVVAVYPNAKVELV
notes: also called cbe_4269628
B3: Human Papillomavirus 1a E2 (other)
chain: MENLSSRLDLLQEQLMNLYEQDSKLIEDQIKQWNLIRQEQVLFHFARKNGVMRIGLQAVPSLASSQEKAKTAIEMVLHLESLKDSPYGTEDWSLQDTSRELFLAPPAGTFKKSGSTLEVTYDNNPDNQTRHTIWNHVYYQNGDDVWRKVSSGVDAVGVYYLEHDGYKNYYVLFAEEASKYSTTGQYAVNYRGKRFTNVMSSTSSPRAAGAPAVHSDYPTLSESDTAQQSTSIDYTELPGQGETSQVRQRQQKTPVRRRPYGRRRSRSPRGGGRREGESTPSRTPGSVPSARDVGSIHTTPQKGHSSRLRRLLQEAWDPPVVCVKGGANQLKCLRYRLKASTQVDFDSISTTWHWTDRKNTERIGSARMLVKFIDEAQREKFLERVALPRSVSVFLGQFNGS
notes: also called HPV 1a E2; cbe_251917
B4: eukaryotic translation initiation factor 2B, subunit 2 beta, 39 kDa (other)
chain: MPGSAAKGSELSERIESFVETLKRGGGPRSSEEMARETLGLLRQIITDHRWSNAGELMELIRREGRRMTAAQPSETTVGNMVRRVLKIIREEYGRLHGRSDESDQQESLHKLLTSGGLNEDFSFHYAQLQSNIIEAINELLVELEGTMENIAAQALEHIHSNEVIMTIGFSRTVEAFLKEAARKRKFHVIVAECAPFCQGHEMAVNLSKAGIETTVMTDAAIFAVMSRVNKVIIGTKTILANGALRAVTGTHTLALAAKHHSTPLIVCAPMFKLSPQFPNEEDSFHKFVAPEEVLPFTEGDILEKVSVHCPVFDYVPPELITLFISNIGGNAPSYIYRLMSELYHPDDHVL
notes: also called EIF2B2; cbe_3625721

The target in test [1] is T1, Human Papillomavirus 1a L2 (Human Papillomavirus 1a, UniProt P03105 1-507).
T1 construct: also called HPV 1a L2; cbe_252041
T1 sequence: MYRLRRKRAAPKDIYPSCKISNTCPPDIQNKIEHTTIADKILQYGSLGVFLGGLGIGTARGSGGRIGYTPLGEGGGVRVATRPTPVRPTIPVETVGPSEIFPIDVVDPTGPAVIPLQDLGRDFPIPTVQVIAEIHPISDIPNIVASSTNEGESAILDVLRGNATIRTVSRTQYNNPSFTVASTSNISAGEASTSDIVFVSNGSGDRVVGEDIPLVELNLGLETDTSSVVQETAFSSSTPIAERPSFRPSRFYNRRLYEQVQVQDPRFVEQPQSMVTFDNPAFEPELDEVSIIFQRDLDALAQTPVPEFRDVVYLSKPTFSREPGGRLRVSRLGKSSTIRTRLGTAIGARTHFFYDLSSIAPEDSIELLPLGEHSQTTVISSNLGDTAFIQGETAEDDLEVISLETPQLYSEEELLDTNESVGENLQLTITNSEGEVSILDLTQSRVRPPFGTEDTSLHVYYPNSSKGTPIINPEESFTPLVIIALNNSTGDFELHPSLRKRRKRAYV
Description: Y2H; INT ID 446.

Test [2] deals with T1, Human Papillomavirus 1a L2. Description: Y2H; INT ID 451.
For test [3], the target named is T2, hypothetical protein FLJ20259 (human, UniProt Q2TAL8 1-776).
T2 construct: also called cbe_1469980
T2 sequence: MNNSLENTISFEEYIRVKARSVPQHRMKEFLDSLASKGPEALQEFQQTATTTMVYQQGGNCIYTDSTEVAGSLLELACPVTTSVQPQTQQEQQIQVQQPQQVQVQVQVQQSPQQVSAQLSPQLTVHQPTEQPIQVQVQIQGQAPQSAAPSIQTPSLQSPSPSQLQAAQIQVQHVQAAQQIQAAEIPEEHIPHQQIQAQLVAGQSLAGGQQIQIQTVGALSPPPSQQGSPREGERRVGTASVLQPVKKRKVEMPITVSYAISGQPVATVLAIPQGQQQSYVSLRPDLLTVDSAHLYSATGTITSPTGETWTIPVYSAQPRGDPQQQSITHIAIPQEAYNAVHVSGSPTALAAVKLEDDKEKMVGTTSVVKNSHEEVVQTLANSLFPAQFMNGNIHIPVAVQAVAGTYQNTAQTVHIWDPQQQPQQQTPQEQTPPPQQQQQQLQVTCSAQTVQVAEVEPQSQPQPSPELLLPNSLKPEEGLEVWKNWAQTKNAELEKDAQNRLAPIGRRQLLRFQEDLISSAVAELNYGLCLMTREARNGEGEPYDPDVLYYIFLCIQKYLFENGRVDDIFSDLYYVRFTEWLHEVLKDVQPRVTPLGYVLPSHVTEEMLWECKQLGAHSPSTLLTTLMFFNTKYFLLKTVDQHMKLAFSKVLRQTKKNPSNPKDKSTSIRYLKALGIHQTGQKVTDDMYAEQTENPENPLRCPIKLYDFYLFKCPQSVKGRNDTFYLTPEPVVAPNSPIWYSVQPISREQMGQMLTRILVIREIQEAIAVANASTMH
Description: Y2H; INT ID 411.

Test [4] has as its target T3, ribosomal protein S10 (human, UniProt P46783 1-165).
T3 construct: also called RPS10; cbe_2826346
Description: Y2H; INT ID 412.

Test [5] has as its target T4, ankylosis, progressive homolog (mouse) (human, UniProt Q9HCJ1 1-492).
T4 construct: also called ANKH; cbe_3641816
Description: Y2H; INT ID 417.

For test [6], the target named is T5, testis-specific protein NYD-TSP1 (human, UniProt Q9BXG8 1-430).
T5 construct: also called Hs.98226; cbe_3826540
T5 sequence: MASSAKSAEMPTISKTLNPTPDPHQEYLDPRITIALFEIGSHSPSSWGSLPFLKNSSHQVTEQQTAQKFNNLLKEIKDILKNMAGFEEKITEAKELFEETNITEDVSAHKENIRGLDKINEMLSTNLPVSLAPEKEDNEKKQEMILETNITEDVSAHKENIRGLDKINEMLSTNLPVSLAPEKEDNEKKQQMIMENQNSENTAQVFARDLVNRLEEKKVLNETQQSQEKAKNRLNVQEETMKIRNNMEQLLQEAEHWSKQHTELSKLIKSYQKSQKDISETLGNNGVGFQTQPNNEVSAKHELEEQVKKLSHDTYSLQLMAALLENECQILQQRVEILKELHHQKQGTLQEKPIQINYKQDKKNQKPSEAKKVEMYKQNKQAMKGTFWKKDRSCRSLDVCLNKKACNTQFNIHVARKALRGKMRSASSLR
Description: Y2H; INT ID 418.

For test [7], the target named is T6, GNB2L1 (human, UniProt P63244 1-317).
T6 construct: also called cbe_4269834
Description: Y2H; INT ID 420.

Test [8] deals with B3. Description: Y2H; INT ID 416.

T4 sequence (Q9HCJ1 whole entry): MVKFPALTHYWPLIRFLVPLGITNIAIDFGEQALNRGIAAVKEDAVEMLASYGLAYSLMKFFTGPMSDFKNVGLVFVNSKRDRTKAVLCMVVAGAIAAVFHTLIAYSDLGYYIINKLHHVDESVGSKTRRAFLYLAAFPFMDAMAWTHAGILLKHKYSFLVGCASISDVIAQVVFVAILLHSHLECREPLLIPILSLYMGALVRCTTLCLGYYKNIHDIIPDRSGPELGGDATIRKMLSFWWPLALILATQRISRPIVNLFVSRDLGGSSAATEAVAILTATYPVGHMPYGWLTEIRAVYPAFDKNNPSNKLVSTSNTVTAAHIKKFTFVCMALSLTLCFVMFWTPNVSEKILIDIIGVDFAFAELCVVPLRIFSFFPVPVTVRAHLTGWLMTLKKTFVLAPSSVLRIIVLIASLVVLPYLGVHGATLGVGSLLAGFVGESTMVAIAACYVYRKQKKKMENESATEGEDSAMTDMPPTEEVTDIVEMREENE

B1: the binding result in test [1] is “binds”.

B2: the binding result in test [2] is “binds”.

With B3, the binding result in test [3], in test [4], in test [5], in test [6] and in test [7] was “binds” in each case.

As for B4, in test [8], the binding result was “binds”.
